Laboratory results reported in patent publication US20030119735.

Assays:
[1] = tested on: T1, 4′-Demethyl-4-[4″-aminoanilino-(succinimidopropionoyl)-(H-Cys-bAla-Arg-Arg-Met-Lys-Trp-Lys-Lys-NH2)]-epipodophyllotoxin
T1 sequence: CRRMKWKK

[2] = tested on: T2, 4′-Demethyl-4-[acetyl-(H-Cys-βAla-Arg-Arg-Met-Lys-Trp-Lys-Lys-NH2)]epipodophyllotoxin
T2 sequence: CRRMKWKK

[3] = tested on: T3, 4-[Succinimidopropionoyl-(H-Cys-βAla-Arg-Arg-Met-Lys-Trp-Lys-Lys-NH2)]epipodophyllotoxin
T3 sequence: CRRMKWKK

[4] = tested on: T4, 4-[Succinimidopropionoyl-(H-Cys-βAla-Arg-Arg-Met-Lys-Trp-Lys-Lys-NH2)]podophyllotoxin
T4 sequence: CRRMKWKK

[5] = tested on: T5, H-βAla-Arg-Arg-Met-Lys-Trp-Lys-Lys-NH2
T5 sequence: RRMKWKK

purified recombinant human topoisomerase II
Activity observed (topoisomerase II cleavage and relaxation assays on plasmid DNA) [1]: I
Activity observed (topoisomerase II cleavage and relaxation assays on plasmid DNA) [2]: IC
Activity observed (topoisomerase II cleavage and relaxation assays on plasmid DNA) [3]: IC
Activity observed (topoisomerase II cleavage and relaxation assays on plasmid DNA) [4]: -
Activity observed (topoisomerase II cleavage and relaxation assays on plasmid DNA) [5]: -
